Data on 22 sequences can be found in the Immune Epitope Database (IEDB).

The target of test [1] is HLA-A*03:01. In words: IEDB peptide-MHC binding, purified MHC/competitive/fluorescence; filed as Kd, often an IC50 or EC50 that approximates it; ≥ and ≤ were set here for values at or beyond the usual limits of such assays.
In test [2] the target is HLA-A*31:01. The description is as above.
The target in test [3] is HLA-B*15:03. In words: IEDB peptide-MHC binding, purified MHC/competitive/radioactivity; filed as Kd, often an IC50 or EC50 that approximates it; ≥ and ≤ were set here for values at or beyond the usual limits of such assays.
Test [4] concerns the target HLA-A*68:01. The test is described as above. The following applies: source organism: Dengue virus 2 Jamaica/1409/1983.
Test [5] addresses HLA-A*11:01. In words: IEDB peptide-MHC binding, purified MHC/direct/fluorescence; filed as Kd, often an IC50 or EC50 that approximates it; ≥ and ≤ were set here for values at or beyond the usual limits of such assays.
For test [6], the target named is HLA-B*08:01. In words: IEDB peptide-MHC binding, purified MHC/competitive/radioactivity; filed as Kd, often an IC50 or EC50 that approximates it; ≥ and ≤ were set here for values at or beyond the usual limits of such assays. The following applies: source organism: Vaccinia virus WR.
The target of test [7] is HLA-A*30:01. The description is as above. The following applies: source organism: Vaccinia virus WR.
Test [8] has as its target HLA-A*32:01. The test is described as above. The settings on record: source organism: Vaccinia virus WR.
Test [9] deals with HLA-B*15:01. Described as above. The settings on record: source organism: Vaccinia virus WR.
For test [10], the target named is HLA-A*02:03. The test is described as above. The settings on record: source organism: Vaccinia virus WR.
Test [11] has as its target HLA-A*02:06. The test is described as above. The following applies: source organism: Vaccinia virus WR.
Test [12] deals with HLA-A*02:02. Described as above. The following applies: source organism: Vaccinia virus WR.
For test [13], the target named is HLA-A*03:01. In words: IEDB peptide-MHC binding, purified MHC/direct/fluorescence; filed as Kd, often an IC50 or EC50 that approximates it; ≥ and ≤ were set here for values at or beyond the usual limits of such assays.
Test [14] addresses HLA-B*07:02. In words: IEDB peptide-MHC binding, purified MHC/competitive/radioactivity; filed as Kd, often an IC50 or EC50 that approximates it; ≥ and ≤ were set here for values at or beyond the usual limits of such assays.
The target in test [15] is HLA-B*54:01. The description is as above.
In test [16] the target is HLA-B*35:01. The description is as above.
The target in test [17] is HLA-B*53:01. Described as above.
Test [18] addresses HLA-B*51:01. The test is described as above.
In test [19] the target is HLA-A*11:01. In words: IEDB peptide-MHC binding, purified MHC/competitive/fluorescence; ≥ and ≤ were set here for values at or beyond the usual limits of such assays. The settings on record: source organism: West Nile virus.
The target of test [20] is HLA-A*02:01. In words: IEDB peptide-MHC binding, purified MHC/competitive/radioactivity; filed as Kd, often an IC50 or EC50 that approximates it; ≥ and ≤ were set here for values at or beyond the usual limits of such assays.
[21] abbreviates: source organism: Desulfitobacterium hafniense DCB-2.
[22] abbreviates: source organism: Vaccinia virus WR.
[23] abbreviates: source organism: Yellow fever virus 1899/81.
[24] abbreviates: source organism: Bacillus anthracis str. Tsiankovskii-I.
[25] abbreviates: source organism: Vibrio vulnificus.
Where [26] appears, read: source organism: SARS coronavirus Tor2.
[27] abbreviates: source organism: West Nile virus.

For ALFAGDLYR, the figures for the Kd in test [1] (setting [21]) and in test [2] (setting [21]) were 12.9 nM and 3.9 nM, respectively.

With AMKVDANYF, the equilibrium dissociation constant (Kd) in test [3] (setting [22]) was 0.149 nM.

Turning to ANVNARNRF, in test [3] (setting [22]), the dissociation constant (Kd) was determined as 552 nM.

As to AVSMANIFR, the Kd worked out at 55.4 nM in test [4], 8.9 nM in test [5] (source organism: Dengue virus 1 Singapore/S275/1990) and 1.37 nM in [2] (source organism: dengue virus type 1).

With ELRDYFEQI, the Kd in test [6] is 12.5 nM; in test [7], at least 38000 nM; in [8], at least 77800 nM; in test [9] it was 2190 nM; in [3] (setting [22]), 80.2 nM.

For FSVSFSPSL, in [3] (source organism: Vaccinia virus Copenhagen), the Kd is 21.7 nM.

Turning to GTHPFSRIR, the Kd in [5] (setting [23]) worked out at 326 nM; in test [2] (setting [23]), 6 nM.

IISYFIFNR: the figures for the Kd in test [1] (setting [24]) and in test [2] (setting [24]) were 304 nM and 22.5 nM, respectively.

For ILFYFANGI, the Kd in test [8] came to 92.5 nM; in test [3] (setting [22]), 139 nM.

IMFAKTLDF: the dissociation constant Kd in [8] amounted to 6.82 nM; in [3] (setting [22]), 0.311 nM.

For the sequence IMRNFLRSI, the equilibrium dissociation constant (Kd) turned out to be 0.398 nM in test [10], 106 nM in test [3] (setting [22]), 3920 nM in test [11] and 485 nM in test [12].

Turning to KGNVSALVK, the equilibrium dissociation constant (Kd) in [13] (setting [25]) is 1160 nM; in test [5] (setting [25]) it was 184 nM; in [2] (source organism: Vibrio vulnificus YJ016), at least 20000 nM.

Take KPIMSMGDII: the dissociation constant (Kd) in [14] (setting [22]) is 6.49 nM; in test [15] (setting [22]), 1980 nM; in test [16] (setting [22]), 622 nM; in test [17] (setting [22]), 90.7 nM; in test [18] (setting [22]), 425 nM.

For KPTTFMLKY, the equilibrium dissociation constant (Kd) in test [14] (setting [26]) was 11400 nM; in [15] (setting [26]), 5220 nM; in test [16] (setting [26]), 41.3 nM; in test [17] (setting [26]), 24.7 nM; in test [18] (setting [26]), 13000 nM.

As for KSYETEYPK, the concentration for half-maximal inhibition (IC50) in test [19] worked out at 7880 nM. The Kd in test [13] (setting [27]) is 728 nM; in test [5] (setting [27]) it was 7.7 nM; in [2] (setting [27]) it was 126 nM.

As to KTHESHLVR, the dissociation constant (Kd) in test [5] (source organism: Yellow fever virus 17D) is 35.6 nM; in test [2] (source organism: Yellow fever virus), 21.2 nM.

Take LLTTPKFTV: in test [20] (source organism: Human alphaherpesvirus 1 strain 17), the dissociation constant Kd was determined as 500 nM.

On to LMWITQCFL, for which the Kd in [20] (source organism: Homo sapiens) is 78 nM.

With LPEETNIGCA, the Kd in test [14] (setting [22]) was at least 20700 nM; in test [15] (setting [22]) it was 243 nM; in test [16] (setting [22]) it was 8680 nM; in test [17] (setting [22]), 2080 nM; in test [18] (setting [22]), at least 69600 nM.

Consider LSISCPNSL, for which, in test [3] (setting [22]), the Kd is 256 nM.

With MKITRPRHF, the Kd in test [3] (setting [22]) amounted to 1.04 nM.

MPTDMLKLF: the Kd was 17.8 nM in test [14] (setting [22]); 28.6 nM in test [15] (setting [22]); 0.163 nM in [16] (setting [22]); 0.141 nM in test [17] (setting [22]); 99.2 nM in test [18] (setting [22]).

As a reminder, the Kd is the free concentration of one partner at which half of the binding sites on the other are occupied at equilibrium, for simple one-to-one binding. A word on the IC50: it is the point on the concentration scale where inhibition reaches its midpoint.
